{
  "source": "patent US20180022822A1",
  "about": "“NOVEL ANTI-FIBROBLAST ACTIVATION PROTEIN (FAP) BINDING AGENTS AND USES THEREOF” (Mabimmune Diagnostics AG, priority 2016, published 2018)",
  "key": {"[1]": {"target": "T1, active recombinant human FAP (Homo sapiens, UniProt Q12884)", "T1 construct": "purchased Sino Biologicals 10464-H07H", "T1 sequence (Q12884 26-760 limits assumed)": "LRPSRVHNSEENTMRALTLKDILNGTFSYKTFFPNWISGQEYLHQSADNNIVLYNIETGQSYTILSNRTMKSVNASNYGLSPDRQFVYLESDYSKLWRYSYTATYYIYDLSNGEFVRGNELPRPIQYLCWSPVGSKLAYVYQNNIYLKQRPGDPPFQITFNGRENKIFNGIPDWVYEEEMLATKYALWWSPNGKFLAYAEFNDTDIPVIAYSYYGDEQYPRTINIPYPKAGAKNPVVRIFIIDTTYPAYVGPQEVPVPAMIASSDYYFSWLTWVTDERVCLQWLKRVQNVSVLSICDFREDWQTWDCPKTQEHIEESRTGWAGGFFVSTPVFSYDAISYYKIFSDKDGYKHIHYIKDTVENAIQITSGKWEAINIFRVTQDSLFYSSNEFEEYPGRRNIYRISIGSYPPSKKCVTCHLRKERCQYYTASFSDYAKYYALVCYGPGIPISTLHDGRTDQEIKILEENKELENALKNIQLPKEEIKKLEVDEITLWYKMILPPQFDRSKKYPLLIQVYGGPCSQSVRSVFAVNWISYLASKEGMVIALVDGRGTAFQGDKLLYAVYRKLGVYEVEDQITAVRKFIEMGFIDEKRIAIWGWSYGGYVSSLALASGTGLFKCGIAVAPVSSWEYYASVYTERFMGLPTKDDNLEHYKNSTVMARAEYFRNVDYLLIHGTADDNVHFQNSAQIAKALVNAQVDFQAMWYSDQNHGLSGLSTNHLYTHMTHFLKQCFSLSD", "assay": "DQ-gelatin cleavage inhibition, active recombinant human FAP", "assay_type": "biochemical", "procedure": "A black flat bottom standard 96-well ELISA plate was blocked for 1 hour at 37° C. using sterile blocking buffer: 5% bovine serum albumin (BSA) in phosphate buffered saline (PBS). The blocking buffer was removed and replaced with: 40 μL of fresh blocking buffer, 40 μL of antibody in PBS, 10 μL of 20 nM active recombinant human FAP (Sino Biologicals, 10464-H07H) in PBS, and 10 μL of DQ-Gelatin (Molecular Probes, D-12054) in PBS. Fluorescence intensity was measured at 485 nm excitation and 530 nm emission every 3 min over a total time of 45 min, while gently shaking the plate for twenty seconds before every measurement. To calculate the fractional activity, the steady state velocity (Δ 530 nm emission/Δ time) […].\nTo determine the inhibitory ability of NI-206.82C2 against active recombinant human FAP (Sino Biologicals, 10464-H07H) a black 96 well ELISA plate was blocked for 1 h at 37° C. with sterile 5% BSA in PBS. After removing the blocking solution, 40 uL of 12.5% BSA in PBS was added to each well. Then FAP-targeting agents (NI-206.82C2, F19, and Val-Boro-Pro (PT-100; Point therapeutics)) were added to the appropriate wells for a final concentration of 500, 10, 3.03, 1.01, 0.031, 0.001, and 0 nM. 10 uL of active recombinant human FAP was then added to all the wells for a final assay concentration of 20 nM. […]"}, "4T1 breast tumor": {"system": "4T1 breast tumor", "conditions": "mouse, in vivo", "method": "A murine cancer model was generated by the injection of 100′000 4T1 cultured breast tumor cells orthotopically into the 2nd left breast of Balb/c immunocompetent mice and allowed to grow for 7 days. Prior to in vivo imaging, the animals were shaved and de-epilated to remove fur for minimal absorbance and scattering of the incident optical light. In-vivo imaging was performed with the Maestro 500 imaging system (Cambridge Research Inc, Woburn, USA). For A680-82C2 detection, a band pass filter from 615 nm-665 nm and a highpass filter over 700 nm were used for excitation and emission light respectively, and fluorescence was detected by a CCD camera (cooled to 11° C.). A series of images were acquired at different wavelengths and then subjected to spectral unmixing (deconvolution of collected optical spectra; this enabled the unmixing of the Alexa680 fluorescence pattern from tissue auto-fluorescence and other spectral contributions).\nWhole mice images were acquired at the following timepoints: before antibody injection, immediately after antibody injection, 6 h, 24 h, 48 h, and 6 d after antibody injection."}, "FAP in human plasma": {"target": "T2, FAP in human plasma (Homo sapiens, UniProt Q12884)", "T2 construct": "from tissue; host or cells: human blood plasma", "T2 sequence (Q12884 24-760 limits assumed)": "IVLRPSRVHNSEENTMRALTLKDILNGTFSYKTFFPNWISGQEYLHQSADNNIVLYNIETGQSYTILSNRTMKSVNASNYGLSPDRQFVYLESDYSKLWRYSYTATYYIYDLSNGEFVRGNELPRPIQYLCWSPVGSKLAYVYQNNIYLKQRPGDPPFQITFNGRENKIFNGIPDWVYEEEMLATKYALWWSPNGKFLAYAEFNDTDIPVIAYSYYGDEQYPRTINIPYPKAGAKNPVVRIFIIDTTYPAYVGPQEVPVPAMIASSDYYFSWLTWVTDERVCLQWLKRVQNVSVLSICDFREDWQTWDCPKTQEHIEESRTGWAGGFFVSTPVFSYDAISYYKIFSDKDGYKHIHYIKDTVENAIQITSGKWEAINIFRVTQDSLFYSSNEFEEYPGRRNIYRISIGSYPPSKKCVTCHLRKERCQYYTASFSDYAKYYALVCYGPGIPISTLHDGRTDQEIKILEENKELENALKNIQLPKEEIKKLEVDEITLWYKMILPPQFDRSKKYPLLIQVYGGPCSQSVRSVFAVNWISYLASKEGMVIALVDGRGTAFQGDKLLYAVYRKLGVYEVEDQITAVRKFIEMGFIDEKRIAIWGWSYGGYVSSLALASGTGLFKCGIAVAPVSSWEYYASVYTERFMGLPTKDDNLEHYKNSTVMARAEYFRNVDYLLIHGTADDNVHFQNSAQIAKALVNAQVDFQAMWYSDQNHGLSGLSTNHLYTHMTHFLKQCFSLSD", "assay": "immunoprecipitation of FAP from human plasma, α2AP-AMC cleavage", "assay_type": "biochemical", "conditions": "compared to plasma before immunoprecipitation", "procedure": "100 μL of PureProteome G Magnetic Beads (Millipore LSKMAGG02) were suspended in 500 μL of 25 mM TRIS, 0.15M NaCl, and 0.1% Tween 20. Human plasma was diluted 1:5 in PBS to an end volume of 125 μL, separated into four tubes, and incubated for 30 min at RT with rotation. Beads were then collected with a magnetic stand, and the pre-cleared supernatant was transferred to a new tube containing magnetic beads coated with 82C2, 43A11, or 3A1. Antibody-conjugated beads were incubated with the plasma dilution overnight at 4° C. while rotating. Beads were then collected with a magnetic stand and the supernatant was removed of analysis of α2AP-AMC cleavage activity. To determine α2AP-AMC activity in the supernatants, a half area black 96 well plate was blocked with sterile filtered 5% BSA at 37° C. for 1 h. Then 40 μL of PBS was added to all the wells, 5 μL of the supernatant solutions to the appropriate wells, and 5 μL of α2AP-AMC solution in methanol was added for a final assay concentration of 10 μM. The fluorescence intensity (cleaved AMC) was measured at 360 nm excitation and 460 nm emission every 3 min over a total time of 30 min and the reaction velocity was calculated using Graphpad Prism 6 software."}},
  "data": [
    {"molecule": "NI-206.82C2: human-derived recombinant anti-FAP antibody; VH SEQ ID NO: 2 or 4 (PIMC), VL SEQ ID NO: 6 (antibody, V domains shown) VH: QVQLQQSGPGLVKPSQTLSLTCAISGDSVSSNSVTWNWIRQSPSRGLEWLGRTYYRSKWYNDYAVSVKGRITINPDTSKNQFYLQLKSVTPEDAAVYYCARDSSILYGDYWGQGTLVTVSS VL: QAVLTQPSSLSASPGASASLTCTLPSGINVGTYRIFWFQQKPGSPPQYLLSYKSDSDNHQGSGVPSRFSGSKDASANAGILLISGLQSEDEADYYCMIWHSSAWVFGGGTKLTVL", "values": [
      {"measurement": "potency for inhibiting active recombinant human FAP compared to Val-boro-Pro and F19", "setting": "[1]", "value": "higher potency"},
      {"measurement": "antibody concentration after 6 d post antibody injection", "setting": "4T1 breast tumor", "value": "declines to almost zero"},
      {"measurement": "rate of α2AP-AMC cleavage in plasma after immunoprecipitation", "setting": "FAP in human plasma", "value": "significantly reduces"}
    ]}
  ]
}
